The RNAGym collection of RNA variant scans (doi:10.1073/pnas.2313332121)

B1: TPR t1 (parent)
chain: GACCAAUCUGCCCUCAGAGCUCGAGAACAUCUUCGGAUGCAGAGGAGGCAGGCUUCGGUGGCGCGAUAGCGCCAACGUCCUCAACCUCCAAUGCAUCCCACCACAUGAUGAUGCCUGAAGAGCCUUGGUUUUUUG

Variants of: B1
Experiment: polymerase ribozyme fitness, log enrichment relative to wild type (log ratio); higher = more active; in vitro selection for triplet polymerase activity
Method in brief: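 Each subunit of a heterodimeric triplet polymerase ribozyme was mutagenized into a library by PCR, transcribed, and subjected to one round of in vitro selection, run in triplicate. Libraries were annealed with a biotinylated primer, the partner subunit and triplets, incubated frozen at −7 °C, and extended constructs were gel-excised, captured on streptavidin beads and recovered by RT-PCR. Input and output libraries were sequenced on Illumina, keeping genotypes with ≥10 input reads and ≥1 read per output. Fitness is log base 2 of genotype enrichment divided by wild-type enrichment, from inverse-variance-weighted replicate averages.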

Variant	polymerase ribozyme fitness (log ratio)
U7G G69U C76G A95U	-1.74
C8A A90U	-0.513
U7C U32C U106A G113U	-3.53
U7G C11U C97U	0.101
U7G G45C C88A C115A	2.03
U7C A46C G60U	-0.333
U7G C53G	-0.551
U7C C8G U21C C62G U78A	-1.85
U7A U87A G127A	-1.5
U7C A90C G93A G117U U132A	-4.79
U7G G71U	0.698
U7G A41G A74U U106A U130C	0.791
C8A C12U C40U C86U	-0.152
U7G G63C A91U	-2.27
U7G G10C C72G C82A	-0.707
U7G G52U	-0.337
U7G C123A	1.97
U7G C70U C102A	-2.24
U7G G17A G39A U55A G61A C82G C115A U130C	-1.97
C8A C12G C15U A18U C70U G110U U125G	-5.75
C8A C12A C34U C56G G71A G77A	-4.02

Variant	polymerase ribozyme fitness (log ratio)
U7C C124G	1.82
U7C C101U C104U	0.219
C8A C12U G45U C62U C94G	-1.01
C8A A41U G57A C104A	-5.75
U7C A27G C62U G63A	-2.76
U7C A27U G36C G57A A74U	-4.85
U7G C12A C15A C49A U112A	-0.0165
C8A A29U U55G	-1.42
U7G A118G	0.686
C8A C12A C34U C56G G77A	-2.77
U7G G60C	-0.367
U7C G44A C79U C86U	-1.45
C8A C11G A16U A43C U78C U125A	-1.72
U7C C8U A46U C56G G128U	-3.61
U7G G63A C98A	-6.38
U7G C12A C101G U116C	-2.39
U7C G61A U87G	0.298
U7C C28A U78A C123U	-3
C8A A43C	-1.76
U7G C12U A37G A43G G61A A91C	-0.427
U7A U92A A103C	-5.64

Variant	polymerase ribozyme fitness (log ratio)
U7G G19U G42A G61A	-2.64
U7C C34A	-2.72
U7G G61U C82G A91C U112C	0.65
U7G G120U	0.729
U7G C28U G48A	-1.75
U7G C8G G44A G120A C124A	1.06
C8A A29U A90C	-2.87
U7G G10A A41G C73G C79A C80A C115A	-3.06
U7C G47A G48A G69U U78C	-0.567
U7G A41U U59G C73U A121C	0.0183
U7C C40U C98A A121C	-3.62
U7C C8G C85A U112G	-1.68
U7G G93U G113A	-1.85
C8A A16G C56A C73A	-0.741
U7G U106C	1.03
U7C C12U U106A C115U G127U	-1.03
U7G C8G U106A C115A G127A	2.21
U7G G42C G45A G61C	-3.42
U7G G10A C49U U112G G135U	-0.92
U7G C12G C49A G69U	1.21
U7G C12A G36U G77U	-0.735

Variant	polymerase ribozyme fitness (log ratio)
U7C U9C	0.297
C8A A74C G120U	2.1
U7G C13A A37C G52A G69U U92A A105U	-4.57
U7G C70U C86U U92A	-3.6
U7G G107U A121U G128C	-5.22
C8A A18C C34G A43U	-7.06
C8A A37U C124A	1.28
U7G C40U A43G G44U C70U U112C	-0.649
C8A A83G C104U U129A	-2.16
U7C C53U G71A U92G C114U	-2.79
U7G C53G A90G	0.0166
U7C G48C C70U	-0.869
U7A U109G	-2.9
U7C C8G G17U C40A C89G A91C U126G	-4.01
C8A C12A U78G	-0.297
C8A A18G U32A G61A C123A	-2.56
U7G U14C A29G G42U U59A C123U	-3.3
U7C C12A C15A C20G G69U C80U C104A C114A G127C	-6.96
U7G G113A	-0.761
U7C A18C G42U G77U A84U	-2.98
